Measurements reported in patent US20140255414A1.

Target: Aβ(pE11-30) peptide
Test: direct ELISA, adsorbed Aβ(pE11-30), 1 µg/ml biotinylated antibody with SA-HRP

Chain of Aβ(pE11-30) peptide (peptide, as listed by the source): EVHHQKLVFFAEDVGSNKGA

biotinylated monoclonal mouse anti Aβ(17-24) antibody (clone 4G8, Covance)
ELISA signal relative to clone 13: 5 times lower
